From patent US9403896B2, “Serpin-finger fusion polypeptide” (Hoffmann-La Roche Inc., priority 2010, dated 2016)
Where two headings read alike, the source gives them in different places.

B1: FP-3: SEQ ID NO: 78=GR+SEQ ID NO: 83+SEQ ID NO: 50+SEQ ID NO: 40; serpin-finger, linker, T-2635 (protein)
chain: GKSGTEAAGAMFLEAIPMSGGGGSGGGGSGGGGTTWEAWDRAIAEYAARIEALIRAAQEQQERNEAALREL
B2: FP-1: SEQ ID NO: 76=GR+SEQ ID NO: 05+SEQ ID NO: 52+SEQ ID NO: 37; serpin-finger, linker, T-1249 (protein)
chain: GRTEAAGAMFLEAIPMSGGGGSGGGGSGGGGTWQEWEQKITALLEQAQIQQEKNEYELQKLDKWASLWEWF

Key:
HIV HR1 polypeptide = target: T1, HIV HR1 polypeptide (Human immunodeficiency virus type 1 group M subtype B, UniProt P04578); assay: biochemical; type: binding; details: for kon: read-out: ka
T1 construct: made in house; host or cells: chemical peptide synthesis (no expression host)
T1 sequence (P04578 540-590): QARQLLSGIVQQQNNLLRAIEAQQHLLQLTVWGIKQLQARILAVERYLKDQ
Protocol: All surface plasmon resonance measurements were performed on a BIAcore 3000 instrument (GE Healthcare Biosciences AB, Sweden) at 25° C. Chemically prepared HIV HR1 peptide (heptad repeat 1; Biotin-[…] Q-NH2 (SEQ ID NO: 87)) was immobilized on a CM5 biosensor chip according to the manufacturer instructions (GE Healthcare Biosciences AB, Sweden). The fusion polypeptide was diluted to a concentration of 25 nM and injected over 5 minutes at a flow rate of 50 μl/min. Thereafter the protein complex obtained from different combined fractions was diluted into the same buffer to concentrations of 250 nM and 80 nM and injected over 5 minutes at a flow rate of 50 μl/min. Afterwards the sensor chip was regenerated for 1 minute with PBS, pH 8.0, 0.005% (v/v) Tween 20. Data analysis was performed with the BIAevaluation software (BIAcore, Sweden) (see FIG. 4).

[1] = tested on: HIV cell-cell-membrane fusion; assay: cell-cell-fusion-assay (CCF-assay), antiviral activity; type: cell-based
From the text: The amino acid sequence of fusion polypeptide FP-1 is SEQ ID NO: 76, the amino acid sequence of fusion polypeptide FP-2 is SEQ ID NO: 77, and the amino acid sequence of fusion polypeptide FP-3 is SEQ ID NO: 78. In the fusion polypeptides FP-1 to FP-3 the same serpin-finger polypeptide is conjugated to different HIV fusion inhibitor polypeptides. The fusion polypeptide FP-3 is expressed better in E. coli than FP-2 and in turn FP-2 is expressed better than the fusion polypeptide FP-1. The same sequence of the fusion polypeptides is obtained for the binding to target HIV HR-1 polypeptide (FP-3>FP-2>FP-1) in a BIAcore assay. The same sequence has also been found for the anti-viral activity in a cell-cell-fusion-assay (CCF-assay).

[2] = BIAcore 3000, 25° C., HR1 peptide immobilized on CM5 chip

Molecule | kon (HIV HR1 polypeptide; [2]) | kd (HIV HR1 polypeptide; [2]) | kon (HIV HR1 polypeptide) | KA (HIV HR1 polypeptide) | Kd (HIV HR1 polypeptide) | ka (HIV HR1 polypeptide) | kd (HIV HR1 polypeptide) | IC50 [1]
CC[C@H](C)[C@H](NC(=O)[C@H](CC(C)C)NC(=O)[C@H](CO)NC(=O)[C@H](Cc1c[nH]cn1)NC(=O)[C@@H](NC(=O)[C@H](CC(C)C)NC(=O)[C@H](CO)NC(=O)[C@@H](NC(=O)[C@H](Cc1ccc(O)cc1)NC(=O)[C@H](CC(N)=O)NC(=O)[C@H](CC(N)=O)NC(=O)[C@@H](NC(=O)[C@H](CCC(=O)O)NC(=O)[C@H](CCCNC(=N)N)NC(=O)[C@H](CC(=O)O)NC(=O)[C@H](Cc1c[nH]c2ccccc12)NC(=O)[C@H](CCC(=O)O)NC(=O)[C@H](CCSC)NC(=O)[C@H](Cc1c[nH]c2ccccc12)NC(=O)[C@@H](NC(=O)[C@@H](N)CCSC)[C@@H](C)O)[C@@H](C)CC)[C@@H](C)O)[C@@H](C)CC)C(=O)N[C@@H](CCC(=O)O)C(=O)N[C@@H](CCC(=O)O)C(=O)N[C@@H](CO)C(=O)N[C@@H](CCC(N)=O)C(=O)N[C@@H](CC(N)=O)C(=O)N[C@@H](CCC(N)=O)C(=O)N[C@@H](CCC(N)=O)C(=O)N[C@@H](CCC(=O)O)C(=O)N[C@@H](CCCCN)C(=O)N[C@@H](CC(N)=O)C(=O)N[C@@H](CCC(=O)O)C(=O)N[C@@H](CCC(N)=O)C(=O)N[C@@H](CCC(=O)O)C(=O)N[C@@H](CC(C)C)C(=O)N[C@@H](CC(C)C)C(=O)O [T-651, reference compound] | 1.65e+06 M⁻¹ s⁻¹ |  |  |  |  |  |  | 
CC[C@H](C)[C@H](NC(=O)[C@H](CCC(N)=O)NC(=O)[C@H](C)NC(=O)[C@H](CCC(N)=O)NC(=O)[C@H](CCC(=O)O)NC(=O)[C@H](CC(C)C)NC(=O)[C@H](CC(C)C)NC(=O)[C@H](C)NC(=O)[C@@H](NC(=O)[C@@H](NC(=O)[C@H](CCCCN)NC(=O)[C@H](CCC(N)=O)NC(=O)[C@H](CCC(=O)O)NC(=O)[C@H](Cc1c[nH]c2ccccc12)NC(=O)[C@H](CCC(=O)O)NC(=O)[C@H](CCC(N)=O)NC(=O)[C@H](Cc1c[nH]c2ccccc12)NC(C)=O)[C@@H](C)CC)[C@@H](C)O)C(=O)N[C@@H](CCC(N)=O)C(=O)N[C@@H](CCC(N)=O)C(=O)N[C@@H](CCC(=O)O)C(=O)N[C@@H](CCCCN)C(=O)N[C@@H](CC(N)=O)C(=O)N[C@@H](CCC(=O)O)C(=O)N[C@@H](Cc1ccc(O)cc1)C(=O)N[C@@H](CCC(=O)O)C(=O)N[C@@H](CC(C)C)C(=O)N[C@@H](CCC(N)=O)C(=O)N[C@@H](CCCCN)C(=O)N[C@@H](CC(C)C)C(=O)N[C@@H](CC(=O)O)C(=O)N[C@@H](CCCCN)C(=O)N[C@@H](Cc1c[nH]c2ccccc12)C(=O)N[C@@H](C)C(=O)N[C@@H](CO)C(=O)N[C@@H](CC(C)C)C(=O)N[C@@H](Cc1c[nH]c2ccccc12)C(=O)N[C@@H](CCC(=O)O)C(=O)N[C@@H](Cc1c[nH]c2ccccc12)C(=O)N[C@@H](Cc1ccccc1)C(N)=O [T-1249, reference compound] |  | 0.00127 s⁻¹ |  |  |  |  |  | 
CC[C@H](C)[C@H](NC(=O)[C@H](C)NC(=O)[C@H](CCCNC(=N)N)NC(=O)[C@H](CC(=O)O)NC(=O)[C@H](Cc1c[nH]c2ccccc12)NC(=O)[C@H](C)NC(=O)[C@H](CCC(=O)O)NC(=O)[C@H](Cc1c[nH]c2ccccc12)NC(=O)[C@@H](NC(=O)[C@@H](N)[C@@H](C)O)[C@@H](C)O)C(=O)N[C@@H](C)C(=O)N[C@@H](CCC(=O)O)C(=O)N[C@@H](Cc1ccc(O)cc1)C(=O)N[C@@H](C)C(=O)N[C@@H](C)C(=O)N[C@@H](CCCNC(=N)N)C(=O)N[C@H](C(=O)N[C@@H](CCC(=O)O)C(=O)N[C@@H](C)C(=O)N[C@@H](CC(C)C)C(=O)N[C@H](C(=O)N[C@@H](CCCNC(=N)N)C(=O)N[C@@H](C)C(=O)N[C@@H](C)C(=O)N[C@@H](CCC(N)=O)C(=O)N[C@@H](CCC(=O)O)C(=O)N[C@@H](CCC(N)=O)C(=O)N[C@@H](CCC(N)=O)C(=O)N[C@@H](CCC(=O)O)C(=O)N[C@@H](CCCCN)C(=O)N[C@@H](CC(N)=O)C(=O)N[C@@H](CCC(=O)O)C(=O)N[C@@H](C)C(=O)N[C@@H](C)C(=O)N[C@@H](CC(C)C)C(=O)N[C@@H](CCCNC(=N)N)C(=O)N[C@@H](CCC(=O)O)C(=O)N[C@@H](CC(C)C)C(=O)O)[C@@H](C)CC)[C@@H](C)CC [T-2635, reference compound] |  |  | 1.11e+06 M⁻¹ s⁻¹ |  |  |  |  | 
FP-2: SEQ ID NO: 77=GR+SEQ ID NO: 82+SEQ ID NO: 75+SEQ ID NO: 13; serpin-finger, linker, T-651 (GRGTEAAGAMFLEAIPMSTTWMEWDKEINNYTSLIHSLIEESQNQQEKNEQELL) |  |  |  | 1.08e+10 M⁻¹ | 0.0924 nM | 1.29e+06 M⁻¹ s⁻¹ | 0.000119 s⁻¹ | 330 nM
B1 |  |  |  | 3.22e+10 M⁻¹ | 0.031 nM | 991000 M⁻¹ s⁻¹ | 3.07e-05 s⁻¹ | 200 nM
B2 |  |  |  | 6.29e+08 M⁻¹ | 1.59 nM | 227000 M⁻¹ s⁻¹ | 0.000361 s⁻¹ | 700 nM
